B1: Ras-related protein Rab-26 (Homo sapiens), Q9ULW5 (parent)
chain: MSRKKTPKSKGASTPAASTLPTANGARPARSGTALSGPDAPPNGPLQPGRPSLGGGVDFYDVAFKVMLVGDSGVGKTCLLVRFKDGAFLAGTFISTVGIDFRNKVLDVDGVKVKLQMWDTAGQERFRSVTHAYYRDAHALLLLYDVTNKASFDNIQAWLTEIHEYAQHDVALMLLGNKVDSAHERVVKREDGEKLAKEYGLPFMETSAKTGLNVDLAFTAIAKELKQRSMKAPSEPRFRLHDYVKREGRGASCCRP

Variants of: B1
Settings: with ada2b_human ADRA2B

Row | Variant | effect of a mutation on the interaction
1 | MSRKKTPKSKGASTPAASTLPTANGARPARSGTALSGPDAPPNGPLQPGRPSLGGGVDFYDVAFKVMLVGDSGVGKTCLLVRFKDGAFLAGTFISTVGIDFRNKVLDVDGVKVKLQMWDTAGQERFRSVTHAYYRDAHALLLLYDVTNKASFDNIQAWLTEIHEYAQHDVALMLLGIKVDSAHERVVKREDGEKLAKEYGLPFMETSAKTGLNVDLAFTAIAKELKQRSMKAPSEPRFRLHDYVKREGRGASCCRP [N177I] | decreasing interaction strength
2 | MSRKKTPKSKGASTPAASTLPTANGARPARSGTALSGPDAPPNGPLQPGRPSLGGGVDFYDVAFKVMLVGDSGVGKNCLLVRFKDGAFLAGTFISTVGIDFRNKVLDVDGVKVKLQMWDTAGQERFRSVTHAYYRDAHALLLLYDVTNKASFDNIQAWLTEIHEYAQHDVALMLLGNKVDSAHERVVKREDGEKLAKEYGLPFMETSAKTGLNVDLAFTAIAKELKQRSMKAPSEPRFRLHDYVKREGRGASCCRP [T77N] | decreasing interaction strength

Variants of: B1
Settings: with ada2b_human ADRA2B
Remark: another data set of the same source

Row | Variant | effect of a mutation on the interaction
3 | MSRKKTPKSKGASTPAASTLPTANGARPARSGTALSGPDAPPNGPLQPGRPSLGGGVDFYDVAFKVMLVGDSGVGKTCLLVRFKDGAFLAGTFISTVGIDFRNKVLDVDGVKVKLQMWDTAGQERFRSVTHAYYRDAHALLLLYDVTNKASFDNIQAWLTEIHEYAQHDVALMLLGIKVDSAHERVVKREDGEKLAKEYGLPFMETSAKTGLNVDLAFTAIAKELKQRSMKAPSEPRFRLHDYVKREGRGASCCRP [N177I] | disrupting interaction strength

From IntAct's records for PubMed 23105096
